Key:
[1] = molecular target: W74R hNPR1 mutant in the presence of ANP (human) (UniProt P01160); experiment: ELISA, 1 µM IgG
[2] = molecular target: constitutively active human NPR1 mutant (W74R) (human) (UniProt P16066); experiment: ELISA, 1 µM IgG
[3] = molecular target: T1, human Natriuretic Peptide Receptor 1 (hNPR1) (human, UniProt P16066 33-473, limits assumed); experiment: ELISA, 1 µM IgG; design: unit not given here
T1 construct: pannings used NPR1-hFc; also called NPR1-hFc
T1 sequence: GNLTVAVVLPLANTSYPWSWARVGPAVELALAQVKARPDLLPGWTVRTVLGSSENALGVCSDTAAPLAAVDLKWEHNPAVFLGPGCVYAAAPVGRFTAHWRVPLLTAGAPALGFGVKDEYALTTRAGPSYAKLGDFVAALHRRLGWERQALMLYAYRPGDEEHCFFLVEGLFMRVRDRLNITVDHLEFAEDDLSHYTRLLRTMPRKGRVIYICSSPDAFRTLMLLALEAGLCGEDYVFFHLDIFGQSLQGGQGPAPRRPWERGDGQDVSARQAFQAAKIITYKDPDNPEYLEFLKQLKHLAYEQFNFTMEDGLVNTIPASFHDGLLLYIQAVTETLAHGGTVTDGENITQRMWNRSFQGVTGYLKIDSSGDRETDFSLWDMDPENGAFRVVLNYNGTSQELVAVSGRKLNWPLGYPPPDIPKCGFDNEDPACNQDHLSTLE

[4] = molecular target: T2, hNPR1-ANP complex (human, UniProt P01160 124-151, limits assumed); experiment: ELISA, 1 µM IgG; design: unit not given here
T2 construct: hNPR1 antigen in the presence of ANP; also called hNPR1 + 100 nM ANP
T2 sequence: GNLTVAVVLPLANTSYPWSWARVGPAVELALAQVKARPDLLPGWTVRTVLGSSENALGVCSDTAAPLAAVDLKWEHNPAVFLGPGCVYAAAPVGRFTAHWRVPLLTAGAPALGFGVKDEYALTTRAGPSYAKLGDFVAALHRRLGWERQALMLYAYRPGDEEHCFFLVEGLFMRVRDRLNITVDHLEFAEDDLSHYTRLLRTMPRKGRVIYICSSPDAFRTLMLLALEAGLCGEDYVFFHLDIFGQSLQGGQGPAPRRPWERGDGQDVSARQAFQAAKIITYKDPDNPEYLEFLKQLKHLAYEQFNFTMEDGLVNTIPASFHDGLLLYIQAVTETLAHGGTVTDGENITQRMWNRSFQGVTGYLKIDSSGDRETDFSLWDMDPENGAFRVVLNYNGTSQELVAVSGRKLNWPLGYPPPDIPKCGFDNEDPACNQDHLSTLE
T2 sequence (peptide): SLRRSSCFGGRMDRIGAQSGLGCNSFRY

[5] = molecular target: T3, rat NPR1 (rNPR1) (rat, UniProt P18910 29-469, limits assumed); experiment: ELISA, 1 µM IgG; design: unit not given here
T3 construct: Soluble antigen
T3 sequence: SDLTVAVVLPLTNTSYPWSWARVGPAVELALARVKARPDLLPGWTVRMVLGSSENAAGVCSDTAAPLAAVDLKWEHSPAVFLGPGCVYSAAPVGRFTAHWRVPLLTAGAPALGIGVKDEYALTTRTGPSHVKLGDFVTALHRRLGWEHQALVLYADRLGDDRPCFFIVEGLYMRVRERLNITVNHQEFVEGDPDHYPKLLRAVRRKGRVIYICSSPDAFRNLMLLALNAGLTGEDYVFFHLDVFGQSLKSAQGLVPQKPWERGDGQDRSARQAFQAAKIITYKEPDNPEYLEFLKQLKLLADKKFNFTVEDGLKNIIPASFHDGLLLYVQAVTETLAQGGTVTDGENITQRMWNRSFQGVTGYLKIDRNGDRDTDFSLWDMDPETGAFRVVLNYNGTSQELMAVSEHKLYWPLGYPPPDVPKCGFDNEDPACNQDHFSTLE

[6] = molecular target: T4, rNPR1-ANP complex (rat, UniProt P01160 124-151 (human entry), limits assumed); experiment: ELISA, 1 µM IgG; design: unit not given here
T4 construct: rNPR1 antigen in the presence of ANP; also called rNPR1 + 100 nM ANP
T4 sequence: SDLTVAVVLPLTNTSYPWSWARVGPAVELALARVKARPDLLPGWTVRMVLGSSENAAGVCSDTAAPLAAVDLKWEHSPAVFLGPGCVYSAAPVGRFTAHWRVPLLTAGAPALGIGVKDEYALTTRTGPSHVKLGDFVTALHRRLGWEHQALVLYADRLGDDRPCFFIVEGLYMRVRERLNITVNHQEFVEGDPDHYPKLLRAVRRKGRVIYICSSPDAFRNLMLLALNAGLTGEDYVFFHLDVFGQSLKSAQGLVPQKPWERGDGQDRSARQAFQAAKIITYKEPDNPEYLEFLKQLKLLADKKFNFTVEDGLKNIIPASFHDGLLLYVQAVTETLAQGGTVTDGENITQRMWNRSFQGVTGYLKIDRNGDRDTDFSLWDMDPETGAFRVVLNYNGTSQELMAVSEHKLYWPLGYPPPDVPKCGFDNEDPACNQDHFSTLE
T4 sequence (peptide): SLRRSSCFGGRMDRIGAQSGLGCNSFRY

[7] = molecular target: T5, human NPR3 (counter target) (human, UniProt P17342 27-481, limits assumed); experiment: ELISA, 1 µM IgG; design: unit not given here
T5 construct: Pannings used hNPR3-hFc; also called hNPR3; hNPR3-hFc
T5 sequence (looked up): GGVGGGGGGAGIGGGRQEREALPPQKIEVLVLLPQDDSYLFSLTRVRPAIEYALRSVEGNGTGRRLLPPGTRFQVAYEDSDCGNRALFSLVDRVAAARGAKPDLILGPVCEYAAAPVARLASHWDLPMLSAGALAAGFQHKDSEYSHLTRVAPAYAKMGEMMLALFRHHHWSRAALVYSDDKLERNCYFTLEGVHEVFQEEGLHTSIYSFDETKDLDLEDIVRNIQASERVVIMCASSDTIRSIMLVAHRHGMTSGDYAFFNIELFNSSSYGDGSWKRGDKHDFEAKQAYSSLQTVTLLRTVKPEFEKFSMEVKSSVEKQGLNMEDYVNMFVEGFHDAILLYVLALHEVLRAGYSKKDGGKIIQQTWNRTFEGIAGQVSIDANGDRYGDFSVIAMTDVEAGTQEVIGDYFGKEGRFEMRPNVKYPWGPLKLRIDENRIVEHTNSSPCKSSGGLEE

[8] = molecular target: T6, human NPR3 in the presence of ANP (human, UniProt P17342 27-481; P01160 124-151, limits assumed); experiment: ELISA, 1 µM IgG; design: unit not given here
T6 construct: also called hNPR3 + 100 nM ANP
T6 sequence (looked up): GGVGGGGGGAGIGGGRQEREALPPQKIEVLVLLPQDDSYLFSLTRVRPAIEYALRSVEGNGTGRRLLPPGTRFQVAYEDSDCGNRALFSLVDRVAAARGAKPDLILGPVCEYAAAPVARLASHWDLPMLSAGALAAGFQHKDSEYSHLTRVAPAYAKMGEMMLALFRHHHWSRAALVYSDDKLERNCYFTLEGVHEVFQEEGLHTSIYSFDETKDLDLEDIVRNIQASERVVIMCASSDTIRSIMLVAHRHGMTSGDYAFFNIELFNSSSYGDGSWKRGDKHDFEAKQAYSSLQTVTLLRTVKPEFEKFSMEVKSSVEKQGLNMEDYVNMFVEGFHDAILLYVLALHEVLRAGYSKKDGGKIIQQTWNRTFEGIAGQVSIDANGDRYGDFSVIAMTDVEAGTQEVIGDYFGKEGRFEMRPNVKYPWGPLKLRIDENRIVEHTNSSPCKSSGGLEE
T6 sequence (peptide, looked up): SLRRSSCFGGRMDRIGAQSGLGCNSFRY

[9] = molecular target: T7, human NPR1 on CHO-K1 cells (human, UniProt P16066 33-1061); experiment: cell-based or functional assay
T7 sequence: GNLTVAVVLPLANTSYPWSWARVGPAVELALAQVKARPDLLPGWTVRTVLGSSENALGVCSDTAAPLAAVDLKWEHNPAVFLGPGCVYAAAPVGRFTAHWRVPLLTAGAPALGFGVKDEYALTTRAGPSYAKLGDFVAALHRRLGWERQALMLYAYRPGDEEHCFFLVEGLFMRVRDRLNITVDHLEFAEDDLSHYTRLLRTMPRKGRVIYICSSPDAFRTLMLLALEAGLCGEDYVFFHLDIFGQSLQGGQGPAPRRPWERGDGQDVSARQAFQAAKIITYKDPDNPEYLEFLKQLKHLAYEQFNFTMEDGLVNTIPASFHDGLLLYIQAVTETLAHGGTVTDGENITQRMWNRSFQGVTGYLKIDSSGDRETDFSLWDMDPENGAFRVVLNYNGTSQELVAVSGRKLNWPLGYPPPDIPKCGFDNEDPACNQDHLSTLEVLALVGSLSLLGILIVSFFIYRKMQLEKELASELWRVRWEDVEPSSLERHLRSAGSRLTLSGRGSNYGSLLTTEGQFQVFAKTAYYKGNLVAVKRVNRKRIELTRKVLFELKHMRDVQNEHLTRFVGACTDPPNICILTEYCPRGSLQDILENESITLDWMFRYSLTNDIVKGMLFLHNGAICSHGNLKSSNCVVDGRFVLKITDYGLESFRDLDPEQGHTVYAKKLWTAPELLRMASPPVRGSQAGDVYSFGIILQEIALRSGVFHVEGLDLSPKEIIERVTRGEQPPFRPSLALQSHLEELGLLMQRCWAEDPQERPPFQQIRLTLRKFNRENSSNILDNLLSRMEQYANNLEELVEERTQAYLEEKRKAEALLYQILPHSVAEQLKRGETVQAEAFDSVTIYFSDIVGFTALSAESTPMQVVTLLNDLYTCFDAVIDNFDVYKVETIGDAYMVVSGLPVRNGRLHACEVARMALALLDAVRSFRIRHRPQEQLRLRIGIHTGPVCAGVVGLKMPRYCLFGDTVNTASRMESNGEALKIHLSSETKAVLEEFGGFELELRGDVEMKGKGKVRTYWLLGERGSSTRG

[10] = molecular target: T8, human NPR1 on CHO-K1 cells in the presence of ANP (human, UniProt P01160 124-151); experiment: flow cytometry, hNPR1 CHO-K1 cells, IgG
T8 construct: also called hNPR1 CHO K1 + 100 nM ANP
T8 sequence: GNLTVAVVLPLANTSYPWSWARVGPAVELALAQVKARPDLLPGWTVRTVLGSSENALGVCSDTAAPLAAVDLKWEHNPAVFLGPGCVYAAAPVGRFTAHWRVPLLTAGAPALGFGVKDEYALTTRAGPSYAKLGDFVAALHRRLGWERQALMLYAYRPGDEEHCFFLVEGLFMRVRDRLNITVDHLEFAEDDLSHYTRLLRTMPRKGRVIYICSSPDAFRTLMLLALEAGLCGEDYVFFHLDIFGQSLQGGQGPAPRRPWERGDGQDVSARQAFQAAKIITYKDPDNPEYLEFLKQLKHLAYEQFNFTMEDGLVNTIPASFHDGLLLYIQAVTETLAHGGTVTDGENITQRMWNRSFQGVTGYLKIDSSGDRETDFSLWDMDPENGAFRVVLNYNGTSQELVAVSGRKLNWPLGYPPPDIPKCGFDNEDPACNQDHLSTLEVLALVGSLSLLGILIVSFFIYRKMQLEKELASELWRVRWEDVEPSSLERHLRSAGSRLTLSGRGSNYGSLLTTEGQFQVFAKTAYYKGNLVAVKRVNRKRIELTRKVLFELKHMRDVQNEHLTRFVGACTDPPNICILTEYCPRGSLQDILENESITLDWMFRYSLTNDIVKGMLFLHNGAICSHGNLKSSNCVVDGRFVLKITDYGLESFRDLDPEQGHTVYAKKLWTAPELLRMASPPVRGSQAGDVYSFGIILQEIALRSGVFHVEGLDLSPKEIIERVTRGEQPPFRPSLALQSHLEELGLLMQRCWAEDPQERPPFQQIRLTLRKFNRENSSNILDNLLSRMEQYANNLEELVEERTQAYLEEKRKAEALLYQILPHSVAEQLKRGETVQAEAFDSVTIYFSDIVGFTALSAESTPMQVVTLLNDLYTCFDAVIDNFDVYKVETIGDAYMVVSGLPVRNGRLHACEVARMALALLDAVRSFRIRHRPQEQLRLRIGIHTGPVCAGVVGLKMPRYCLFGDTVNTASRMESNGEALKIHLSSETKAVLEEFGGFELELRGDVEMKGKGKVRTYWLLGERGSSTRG
T8 sequence (peptide): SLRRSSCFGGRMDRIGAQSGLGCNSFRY

[11] = molecular target: T7, human NPR1 on CHO-K1 cells; experiment: flow cytometry, hNPR1 CHO-K1 cells, IgG
[12] = molecular target: constitutively active human NPR1 mutant (W74R) (human) (UniProt P16066); experiment: ELISA, IgG titrated on coated antigen, fluorescence [Cont.]

B1: YY05 (IgG format) (antibody, V domains shown)
VH: EVQLVQSGAEVKKPGESLKISCKGSGYSFTSYWISWVRQMPGKGLEWMGIIYPGTSYTRYSPSFQGQVTISADKSISTAYLQWSSLKASDTAMYYCARGAVAGQLGFDHWGQGTLVTVSS
VL: QSVLTQPPSVSGAPGQRVTISCTGSSSNIGAGYDVHWYQQLPGTAPKLLIYGNSNRPSGVPDRFSGSKSGTSASLAITGLQAEDEADYYCQSYYTSSHGPVFGGGTKLTVLG
notes: also called YY05_LALA
B1 was tested, and the ELISA binding at 1 µM IgG [1] was 23, the ELISA binding at 1 µM IgG [2] was 69 and the “ELISA binding at 1 µM IgG” value [3] was 81. For the same binder, the “ELISA binding at 1 µM IgG” value [4] was 32, the “ELISA binding at 1 µM IgG” value [5] was 11 and the “ELISA binding at 1 µM IgG” value [6] was 16. The ELISA binding at 1 µM IgG [7] was 7, the ELISA binding at 1 µM IgG [8] was 4 and the “cGMP conc [nM] at 1 µM IgG, +0.075 nM ANP” value [9] was 15 nM. The “cGMP conc [nM] at 1 µM IgG, without ANP” value [9] was 13 nM, the “flow cytometry S/BG at 1 µM IgG” value [10] was 5 S/BG and the “flow cytometry S/BG at 1 µM IgG” value [11] was 15 S/BG. For the same binder, the EC50 (read off the curve) [12] was 1 nM.

— patent publication US20240052042A1 (Novartis, published 2024)
